Residue numbers refer to the chain shown, from its start.
B1: Clone 193 (designed binder)
chain: MIPGGLSEAKPATPEIQEIVDKVKPQLEEKTGETYGKLEAVQYKTQVVLRHPVQDDDGTNYYIKVRAGDNKYMHLKVFKSLAGVNRWKWIEDLVLTGYQVDKNKDDELTGF
notes: His-tagged
B2: Clone 195 (designed binder)
chain: MIPGGLSEAKPATPEIQEIVDKVKPQLEEKTGETYGKLEAVQYKTQVVVGVGRDFPKGTNYYIKVRAGDNKYMHLKVFKSLYIHYLKVNEEDLVLTGYQVDKNKDDELTGF
notes: His-tagged
B3: Clone 211 (designed binder)
chain: MIPGGLSEAKPATPEIQEIVDKVKPQLEEKTGETYGKLEAVQYKTQVVTHPEDAYSWGTNYYIKVRAGDNKYMHLKVFKSLLKPGGLLDFEDLVLTGYQVDKNKDDELTGF
notes: His-tagged
B4: Clone 187 (designed binder)
chain: MIPGGLSEAKPATPEIQEIVDKVKPQLEEKTGETYGKLEAVQYKTQVVIQDWTVGWEGTNYYIKVRAGDNKYMHLKVFKSLRIGRSTNLWEDLVLTGYQVDKNKDDELTGF
notes: His-tagged
B5: Clone 254 (designed binder)
chain: B4 chain with Q50S, W52V, T53S, I83S, R85P, S86A, T87H, N88V, L89R, W90R
notes: His-tagged
B6: Clone 197 (designed binder)
chain: MIPGGLSEAKPATPEIQEIVDKVKPQLEEKTGETYGKLEAVQYKTQVVWKPQDSVNWGTNYYIKVRAGDNKYMHLKVFKSLDWDGAAGDAEDLVLTGYQVDKNKDDELTGF
notes: His-tagged
B7: Clone 183 (designed binder)
chain: MIPGGLSEAKPATPEIQEIVDKVKPQLEEKTGETYGKLEAVQYKTQVVRQTDSVKWWGTNYYIKVRAGDNKYMHLKVFKSLWYNRYYNDFEDLVLTGYQVDKNKDDELTGF
notes: His-tagged
B8: Clone 182 (designed binder)
chain: MIPGGLSEAKPATPEIQEIVDKVKPQLEEKTGETYGKLEAVQYKTQVVLKTNPSPSDGTNYYIKVRAGDNKYMHLKVFKSLAVFRQRLGVEDLVLTGYQVDKNKDDELTGF
notes: His-tagged
B9: Clone 212 (designed binder)
chain: MIPGGLSEAKPATPEIQEIVDKVKPQLEEKTGETYGKLEAVQYKTQVVYAFITPVTHGTNYYIKVRAGDNKYMHLKVFKSLWLNNFGKNFEDLVLTGYQVDKNKDDELTGF
notes: His-tagged
B10: Clone 206 (designed binder)
chain: MIPGGLSEAKPATPEIQEIVDKVKPQLEEKTGETYGKLEAVQYKTQVVRADVNVIWWGTNYYIKVRAGDNKYMHLKVFKSLPVKYKEILLEDLVLTGYQVDKNKDDELTGF
notes: His-tagged
B11: Clone 198 (designed binder)
chain: MIPGGLSEAKPATPEIQEIVDKVKPQLEEKTGETYGKLEAVQYKTQVVSSPLHWELWHWSGTNYYIKVRAGDNKYMHLKVFKSLELNNKDQNDEDLVLTGYQVDKNKDDELTGF
notes: His-tagged
B12: Clone 186 (designed binder)
chain: MIPGGLSEAKPATPEIQEIVDKVKPQLEEKTGETYGKLEAVQYKTQVVYDNVKEYPWGTNYYIKVRAGDNKYMHLKVFKSLKWYDPTIRPEDLVLTGYQVDKNKDDELTGF
notes: His-tagged
B13: Clone 188 (designed binder)
chain: MIPGGLSEAKPATPEIQEIVDKVKPQLEEKTGETYGKLEAVQYKTQVVPQENAPWVLGTNYYIKVRAGDNKYMHLKVFKSLNWDQPDTVLEDLVLTGYQVDKNKDDELTGF
notes: His-tagged
B14: Clone 20 (designed binder)
chain: MIPGGLSEAKPATPEIQEIVDKVKPQLEEKTGETYGKLEAVQYKTQVVANSKWHYAFGTNYYIKVRAGDNKYMHLKVFKSLDNAIYRGPTEDLVLTGYQVDKNKDDELTGF
notes: His-tagged
B15: Clone 213 (designed binder)
chain: MIPGGLSEAKPATPEIQEIVDKVKPQLEEKTGETYGKLEAVQYKTQVVKQHTKEWAPGTNYYIKVRAGDNKYMHLKVFKSLWNHLYHYPFEDLVLTGYQVDKNKDDELTGF
notes: His-tagged
B16: Clone 225 (designed binder)
chain: MIPGGLSEAKPATPEIQEIVDKVKPQLEEKTGETYGKLEAVQYKTQVVDLHTPHYAPGTNYYIKVRAGDNKYMHLKVFKSLWNTLLEFGGEDLVLTGYQVDKNKDDELTGF
notes: His-tagged
B17: Clone 24 (designed binder)
chain: MIPGGLSEAKPATPEIQEIVDKVKPQLEEKTGETYGKLEAVQYKTQVVEEGTPEWAPGTNYYIKVRAGDNKYMHLKVFKSLWSDVLYNDFEDLVLTGYQVDKNKDDELTGF
notes: His-tagged
B18: Clone 2 (designed binder)
chain: MIPGGLSEAKPATPEIQEIVDKVKPQLEEKTGETYGKLEAVQYKTQVVASFIDIGWHGTNYYIKVRAGDNKYMHLKVFKSLREGKHGRNKEDLVLTGYQVDKNKDDELTGF
notes: His-tagged
B19: Clone 36 (designed binder)
chain: MIPGGLSEAKPATPEIQEIVDKVKPQLEEKTGETYGKLEAVQYKTQVVWSFAQVGWHGTNYYIKVRAGDNKYMHLKVFKSLRRFEHLPFYEDLVLTGYQVDKNKDDELTGF
notes: His-tagged
B20: Clone 199 (designed binder)
chain: MIPGGLSEAKPATPEIQEIVDKVKPQLEEKTGETYGKLEAVQYKTQVVRDHELVNQWGTNYYIKVRAGDNKYMHLKVFKSLFGQPVQGNTEDLVLTGYQVDKNKDDELTGF
notes: His-tagged
B21: Clone 34 (designed binder)
chain: MIPGGLSEAKPATPEIQEIVDKVKPQLEEKTGETYGKLEAVQYKTQVVTHLNNNAWTGTNYYIKVRAGDNKYMHLKVFKSLFFHNGKIYREDLVLTGYQVDKNKDDELTGF
notes: His-tagged
B22: Clone 203 (designed binder)
chain: MIPGGLSEAKPATPEIQEIVDKVKPQLEEKTGETYGKLEAVQYKTQVVYHGPPKEWLGTNYYIKVRAGDNKYMHLKVFKSLFFWKGNGYREDLVLTGYQVDKNKDDELTGF
notes: His-tagged
B23: Clone 210 (designed binder)
chain: MIPGGLSEAKPATPEIQEIVDKVKPQLEEKTGETYGKLEAVQYKTQVVWEYAGDYLEGTNYYIKVRAGDNKYMHLKVFKSLFHGIWWARVEDLVLTGYQVDKNKDDELTGF
notes: His-tagged
B24: Clone 21 (designed binder)
chain: MIPGGLSEAKPATPEIQEIVDKVKPQLEEKTGETYGKLEAVQYKTQVVKRPHFLQFSGTNYYIKVRAGDNKYMHLKVFKSLNIGPAKKQLEDLVLTGYQVDKNKDDELTGF
notes: His-tagged
B25: Clone 204 (designed binder)
chain: MIPGGLSEAKPATPEIQEIVDKVKPQLEEKTGETYGKLEAVQYKTQVVSLRPHEQLYGTNYYIKVRAGDNKYMHLKVFKSLHLKLWKIPNEDLVLTGYQVDKNKDDELTGF
notes: His-tagged
B26: Clone 200 (designed binder)
chain: MIPGGLSEAKPATPEIQEIVDKVKPQLEEKTGETYGKLEAVQYKTQVVYGPHHQTYAGTNYYIKVRAGDNKYMHLKVFKSLYALHINRWPEDLVLTGYQVDKNKDDELTGF
notes: His-tagged
B27: Clone 81 (designed binder)
chain: MIPGGLSEAKPATPEIQEIVDKVKPQLEEKTGETYGKLEAVQYKTQVVKAYVIWSYKGTNYYIKVRAGDNKYMHLKVFKSLFYGEPRGKGEDLVLTGYQVDKNKDDELTGF
notes: His-tagged
B28: Clone 217 (designed binder)
chain: MIPGGLSEAKPATPEIQEIVDKVKPQLEEKTGETYGKLEAVQYKTQVVKKYVIFFYEGTNYYIKVRAGDNKYMHLKVFKSLFVNKGGSDDEDLVLTGYQVDKNKDDELTGF
notes: His-tagged
B29: Clone 181 (designed binder)
chain: MIPGGLSEAKPATPEIQEIVDKVKPQLEEKTGETYGKLEAVQYKTQVVKAYKVFNYIGTNYYIKVRAGDNKYMHLKVFKSLFKWDNGISDEDLVLTGYQVDKNKDDELTGF
notes: His-tagged
B30: Clone 209 (designed binder)
chain: MIPGGLSEAKPATPEIQEIVDKVKPQLEEKTGETYGKLEAVQYKTQVVIAKEENHWRGTNYYIKVRAGDNKYMHLKVFKSLHYYQDVLYREDLVLTGYQVDKNKDDELTGF
notes: His-tagged
B31: Clone 191 (designed binder)
chain: MIPGGLSEAKPATPEIQEIVDKVKPQLEEKTGETYGKLEAVQYKTQVVLRYHFPEFHGTNYYIKVRAGDNKYMHLKVFKSLNHLAIHELPEDLVLTGYQVDKNKDDELTGF
notes: His-tagged
B32: Clone 79 (designed binder)
chain: MIPGGLSEAKPATPEIQEIVDKVKPQLEEKTGETYGKLEAVQYKTQVVIWHSEWSYTGTNYYIKVRAGDNKYMHLKVFKSLFTRHSEPWEEDLVLTGYQVDKNKDDELTGF
notes: His-tagged
B33: Clone 202 (designed binder)
chain: MIPGGLSEAKPATPEIQEIVDKVKPQLEEKTGETYGKLEAVQYKTQVVIRHVIWSYSGTNYYIKVRAGDNKYMHLKVFKSLWERNASLSEEDLVLTGYQVDKNKDDELTGF
notes: His-tagged
B34: Clone 185 (designed binder)
chain: MIPGGLSEAKPATPEIQEIVDKVKPQLEEKTGETYGKLEAVQYKTQVVVVLFASGWEGTNYYIKVRAGDNKYMHLKVFKSLIQWRDHKPREDLVLTGYQVDKNKDDELTGF
notes: His-tagged

Target: T1, human PD-L1-Fc (R&D Systems) (human, UniProt Q9NZQ7 19-239)
T1 construct: Bought from R&D Systems; Biotinylated in-house for the phage selection; also called huPD-L1-Fc; human PD-L1-Fc antigen; not shown: Fc part of the bought fusion
Assay: soluble Affimer ELISA

T1 sequence (Q9NZQ7 19-239 limits assumed): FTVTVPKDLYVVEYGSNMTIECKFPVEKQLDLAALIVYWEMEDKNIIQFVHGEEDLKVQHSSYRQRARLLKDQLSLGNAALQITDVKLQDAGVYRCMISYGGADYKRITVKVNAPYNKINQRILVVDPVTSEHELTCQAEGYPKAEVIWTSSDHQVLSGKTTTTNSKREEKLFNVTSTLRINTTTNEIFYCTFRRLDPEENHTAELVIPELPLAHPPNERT

Binding result, binds:
B1
B2
B3
B4
B5
B6
B7
B8
B9
B10
B11
B12
B13
B14
B15
B16
B17
B18
B19
B20
B21
B22
B23
B24
B25
B26
B27
B28
B29
B30
B31
B32
B33
B34

Source: patent publication US20250243277A1 (AVACTA LIFE SCIENCES, published 2025)
